For assay [1], the target named is human ACE2 peptidase domain (amino acids 1-615 of human ACE2 with C-terminal His-10 and Avi tags) (human) (UniProt Q9BYF1).
The target is the same in assay [2]. Kind of assay: biolayer interferometry (Octet RED384); assumed value, not measured. On the technique in general: BLI is a label-free optical method that tracks binding on a fibre tip over time.

A value given as a limit tells only on which side of the number the result lay.

By Kd is commonly meant the equilibrium constant for the complex coming apart. Read a low Kd as higher affinity. What is called koff is a measure of how fast the partners let go of each other. Low values mean slow dissociation, high ones fast dissociation.

Chain of UniProt Q9BYF1 (Q9BYF1 18-615 limits assumed): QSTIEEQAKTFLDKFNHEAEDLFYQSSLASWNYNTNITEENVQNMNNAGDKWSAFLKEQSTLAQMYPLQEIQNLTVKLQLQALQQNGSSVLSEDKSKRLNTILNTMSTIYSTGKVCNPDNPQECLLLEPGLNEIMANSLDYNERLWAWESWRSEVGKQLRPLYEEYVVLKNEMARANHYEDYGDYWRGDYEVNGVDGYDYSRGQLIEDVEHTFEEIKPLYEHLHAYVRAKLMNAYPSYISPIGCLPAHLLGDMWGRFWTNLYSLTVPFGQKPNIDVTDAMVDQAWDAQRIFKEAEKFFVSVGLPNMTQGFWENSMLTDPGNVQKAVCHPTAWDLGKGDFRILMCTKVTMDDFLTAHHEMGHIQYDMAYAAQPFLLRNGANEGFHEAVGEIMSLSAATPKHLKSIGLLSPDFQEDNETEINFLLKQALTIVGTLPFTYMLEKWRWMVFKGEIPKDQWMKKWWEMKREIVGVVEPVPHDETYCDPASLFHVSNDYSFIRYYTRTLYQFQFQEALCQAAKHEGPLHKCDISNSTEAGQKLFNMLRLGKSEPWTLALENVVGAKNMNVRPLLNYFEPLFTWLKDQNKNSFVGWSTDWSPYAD

Substance “RBD-foldon trimer (trimerised SARS-CoV-2 spike receptor-binding domain fused to the T4 fibritin fold (other; other documents disagree on this pair)” gave a Kd in assay [1] of 5 pM. This substance also displayed an off-rate (koff) in assay [2] of less than 1e-06 s⁻¹.

These data come from US20230075979A1.
